Results from PMC1569432, “The yfhQ gene of Escherichia coli encodes a tRNA:Cm32/Um32 methyltransferase” (BMC Molecular Biology, 2006).

Target: the molecule itself
Test: SEC; gel filtration of purified YfhQ on Superdex 200 in buffer B (50 mM Tris-HCl pH 7.5, 150 mM NaCl, 10 mM MgCl2, 10% glycerol); self-association, dimer

B1: YfhQ protein of Escherichia coli, His-tagged (enzyme, UniProt P0AE01 1-246, looked up)
chain: MLQNIRIVLVETSHTGNMGSVARAMKTMGLTNLWLVNPLVKPDSQAIALAAGASDVIGNAHIVDTLDEALAGCSLVVGTSARSRTLPWPMLDPRECGLKSVAEAANTPVALVFGRERVGLTNEELQKCHYHVAIAANPEYSSLNLAMAVQVIAYEVRMAWLATQENGEQVEHEETPYPLVDDLERFYGHLEQTLLATGFIRENHPGQVMNKLRRLFTRARPESQELNILRGILASIEQQNKGNKAE
notes: YfhQ (TrmJ), SPOUT superfamily methyltransferase of Escherichia coli; yfhQ gene in the pCA24N vector; theoretical mass of the His-tagged monomer 29.168 kDa; also called TrMet(Xm32); TrmJ; source: E. coli BL21 (DE3), purified (Ni2+ Chelating Sepharose, Superdex 200 gel filtration)
stoichiometry N: 2
